According to the supplement of paper PMC10567573:

B1: RHOBTB3 (parent)
chain: STTEGIQLAKELGATYLELHSLDD

Variants of: B1
Assay: protein stability index of a GFP-peptide fusion (GPS, HEK-293T) (PSI 1-6); higher = more stable
Settings: c terminus: a fixed tail appended
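Note: lentivirally expressed fusions sorted by FACS into six bins by GFP to DsRed ratio, PSI derived from sequencing read proportions per bin multiplied by bin number.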

Variant	protein stability index
STTEGIQNAKELGATYLELHSLDD	4.57
STTEGIQVAKELGATYLELHSLDD	4.44
STTEGIQTAKELGATYLELHSLDD	4.97
STTEGIQSAKELGATYLELHSLDD	4.58
STTEGIQCAKELGATYLELHSLDD	3.94
STTEGIQGAKELGATYLELHSLDD	5.04
STTEGIQYAKELGATYLELHSLDD	4.97
STTEGIQMAKELGATYLELHSLDD	4.11
STTEGIQAAKELGATYLELHSLDD	4.29
STTEGIQWAKELGATYLELHSLDD	3.86
STTEGIQDAKELGATYLELHSLDD	5.04
STTEGIQFAKELGATYLELHSLDD	4.24
STTEGIQQAKELGATYLELHSLDD	5.2
STTEGIQIAKELGATYLELHSLDD	4.41
STTEGIQKAKELGATYLELHSLDD	4.78
STTEGIQEAKELGATYLELHSLDD	4.97
STTEGIQPAKELGATYLELHSLDD	4.92
STTEGIQRAKELGATYLELHSLDD	4.41
STTEGIQHAKELGATYLELHSLDD	4.53
STTEKIQLAKELGATYLELHSLDD	3.73
STTETIQLAKELGATYLELHSLDD	4.16
STTECIQLAKELGATYLELHSLDD	3.02
STTENIQLAKELGATYLELHSLDD	4.27
STTERIQLAKELGATYLELHSLDD	3.89

Variant	protein stability index
STTELIQLAKELGATYLELHSLDD	3.64
STTEPIQLAKELGATYLELHSLDD	4.09
STTEDIQLAKELGATYLELHSLDD	2.49
STTEFIQLAKELGATYLELHSLDD	2.25
STTEHIQLAKELGATYLELHSLDD	3.26
STTEMIQLAKELGATYLELHSLDD	2.15
STTEAIQLAKELGATYLELHSLDD	3.23
STTEWIQLAKELGATYLELHSLDD	1.56
STTESIQLAKELGATYLELHSLDD	3.56
STTEQIQLAKELGATYLELHSLDD	3.94
STTEYIQLAKELGATYLELHSLDD	2.91
STTEVIQLAKELGATYLELHSLDD	3.98
STTEEIQLAKELGATYLELHSLDD	3.31
STTEIIQLAKELGATYLELHSLDD	1.92
STTYGIQLAKELGATYLELHSLDD	2.27
STTWGIQLAKELGATYLELHSLDD	2.58
STTKGIQLAKELGATYLELHSLDD	4.24
STTAGIQLAKELGATYLELHSLDD	3.66
STTPGIQLAKELGATYLELHSLDD	3.65
STTRGIQLAKELGATYLELHSLDD	3.42
STTSGIQLAKELGATYLELHSLDD	3.79
STTMGIQLAKELGATYLELHSLDD	2.27
STTQGIQLAKELGATYLELHSLDD	2.71
STTDGIQLAKELGATYLELHSLDD	3.44

Variant	protein stability index
STTFGIQLAKELGATYLELHSLDD	2.29
STTVGIQLAKELGATYLELHSLDD	3.1
STTHGIQLAKELGATYLELHSLDD	3.37
STTTGIQLAKELGATYLELHSLDD	3.67
STTNGIQLAKELGATYLELHSLDD	3.58
STTGGIQLAKELGATYLELHSLDD	3.98
STTCGIQLAKELGATYLELHSLDD	1.66
STTLGIQLAKELGATYLELHSLDD	1.83
STTIGIQLAKELGATYLELHSLDD	2.35
SYTEGIQLAKELGATYLELHSLDD	2.37
SATEGIQLAKELGATYLELHSLDD	3.58
SNTEGIQLAKELGATYLELHSLDD	4.11
SWTEGIQLAKELGATYLELHSLDD	1.58
SKTEGIQLAKELGATYLELHSLDD	3.5
SITEGIQLAKELGATYLELHSLDD	2.07
SGTEGIQLAKELGATYLELHSLDD	2.54
SQTEGIQLAKELGATYLELHSLDD	3.85
SPTEGIQLAKELGATYLELHSLDD	4.02
SLTEGIQLAKELGATYLELHSLDD	2.21
SDTEGIQLAKELGATYLELHSLDD	4.43
SSTEGIQLAKELGATYLELHSLDD	3.71
SRTEGIQLAKELGATYLELHSLDD	3.5
SHTEGIQLAKELGATYLELHSLDD	3.68
SVTEGIQLAKELGATYLELHSLDD	2.81

Variant	protein stability index
SCTEGIQLAKELGATYLELHSLDD	3.31
SETEGIQLAKELGATYLELHSLDD	4.33
SMTEGIQLAKELGATYLELHSLDD	2.8
STTEGCQLAKELGATYLELHSLDD	5.12
STTEGWQLAKELGATYLELHSLDD	2.7
STTEGMQLAKELGATYLELHSLDD	3.01
STTEGNQLAKELGATYLELHSLDD	4.39
STTEGQQLAKELGATYLELHSLDD	4.54
STTEGKQLAKELGATYLELHSLDD	3.94
STTEGLQLAKELGATYLELHSLDD	2.87
STTEGFQLAKELGATYLELHSLDD	2.59
STTEGSQLAKELGATYLELHSLDD	4.39
STTEGRQLAKELGATYLELHSLDD	3.6
STTEGYQLAKELGATYLELHSLDD	3.22
STTEGHQLAKELGATYLELHSLDD	4.62
STTEGTQLAKELGATYLELHSLDD	1.68
STTEGPQLAKELGATYLELHSLDD	4.31
STTEGGQLAKELGATYLELHSLDD	4.9
STTEGVQLAKELGATYLELHSLDD	4.05
STTEGEQLAKELGATYLELHSLDD	4.71
STTEGIQLQKELGATYLELHSLDD	3.52
STTEGIQLCKELGATYLELHSLDD	3.08
STTEGIQLKKELGATYLELHSLDD	3.6
STTEGIQLFKELGATYLELHSLDD	2.28

Variant	protein stability index
STTEGIQLHKELGATYLELHSLDD	4.38
STTEGIQLWKELGATYLELHSLDD	2.64
STTEGIQLPKELGATYLELHSLDD	4.49
STTEGIQLDKELGATYLELHSLDD	4.64
STTEGIQLLKELGATYLELHSLDD	1.19
STTEGIQLYKELGATYLELHSLDD	3.12
STTEGIQLGKELGATYLELHSLDD	4.34
STTEGIQLNKELGATYLELHSLDD	4.06
STTEGIQLRKELGATYLELHSLDD	3.01
STTEGIQLVKELGATYLELHSLDD	2.53
STTEGIQLMKELGATYLELHSLDD	1.74
STTEGIQLIKELGATYLELHSLDD	2.63
STTEGIQLTKELGATYLELHSLDD	4.21
STTEGIQLSKELGATYLELHSLDD	4.24
STTEGISLAKELGATYLELHSLDD	4.24
STTEGIMLAKELGATYLELHSLDD	2.86
STTEGIELAKELGATYLELHSLDD	3.71
STTEGICLAKELGATYLELHSLDD	3.49
STTEGIFLAKELGATYLELHSLDD	3.37
STTEGILLAKELGATYLELHSLDD	2.95
STTEGIYLAKELGATYLELHSLDD	3.52
STTEGIDLAKELGATYLELHSLDD	4.68
STTEGIKLAKELGATYLELHSLDD	3.96
STTEGIILAKELGATYLELHSLDD	3.37

Variant	protein stability index
STTEGIGLAKELGATYLELHSLDD	3.36
STTEGIWLAKELGATYLELHSLDD	2.5
STTEGITLAKELGATYLELHSLDD	3.68
STTEGIRLAKELGATYLELHSLDD	2.19
STTEGIHLAKELGATYLELHSLDD	3.99
STTEGIALAKELGATYLELHSLDD	3.7
STTEGIVLAKELGATYLELHSLDD	3.54
STTEGIPLAKELGATYLELHSLDD	3.65
STTEGINLAKELGATYLELHSLDD	3.24
STTEGIQLARELGATYLELHSLDD	2.99
STTEGIQLAWELGATYLELHSLDD	1.5
STTEGIQLAPELGATYLELHSLDD	4.33
STTEGIQLAEELGATYLELHSLDD	4.35
STTEGIQLAVELGATYLELHSLDD	2.06
STTEGIQLATELGATYLELHSLDD	1.84
STTEGIQLAFELGATYLELHSLDD	1.38
STTEGIQLAGELGATYLELHSLDD	1.71
STTEGIQLAQELGATYLELHSLDD	3.57
STTEGIQLANELGATYLELHSLDD	2.84
STTEGIQLASELGATYLELHSLDD	3.13
STTEGIQLAHELGATYLELHSLDD	3.15
STTEGIQLAAELGATYLELHSLDD	2.73
STEEGIQLAKELGATYLELHSLDD	4.19
STQEGIQLAKELGATYLELHSLDD	2.84

Variant	protein stability index
STLEGIQLAKELGATYLELHSLDD	2.37
STKEGIQLAKELGATYLELHSLDD	3.42
STGEGIQLAKELGATYLELHSLDD	4.01
STREGIQLAKELGATYLELHSLDD	3.03
STFEGIQLAKELGATYLELHSLDD	2.29
STDEGIQLAKELGATYLELHSLDD	3.97
STIEGIQLAKELGATYLELHSLDD	2.73
STWEGIQLAKELGATYLELHSLDD	1.84
STYEGIQLAKELGATYLELHSLDD	2.83
STVEGIQLAKELGATYLELHSLDD	3.19
STCEGIQLAKELGATYLELHSLDD	2.22
STNEGIQLAKELGATYLELHSLDD	2.9
STPEGIQLAKELGATYLELHSLDD	3.56
STHEGIQLAKELGATYLELHSLDD	2.49
STAEGIQLAKELGATYLELHSLDD	2.94
STSEGIQLAKELGATYLELHSLDD	4.02
STMEGIQLAKELGATYLELHSLDD	2.31
STTEGIQLAKHLGATYLELHSLDD	4.34
STTEGIQLAKCLGATYLELHSLDD	3.42
STTEGIQLAKFLGATYLELHSLDD	2.56
STTEGIQLAKKLGATYLELHSLDD	2.94
STTEGIQLAKMLGATYLELHSLDD	3.19
STTEGIQLAKILGATYLELHSLDD	2.39
STTEGIQLAKDLGATYLELHSLDD	4.01

Variant	protein stability index
STTEGIQLAKGLGATYLELHSLDD	3.86
STTEGIQLAKALGATYLELHSLDD	1.53
STTEGIQLAKLLGATYLELHSLDD	2.19
QTTEGIQLAKELGATYLELHSLDD	4.18
KTTEGIQLAKELGATYLELHSLDD	4.39
CTTEGIQLAKELGATYLELHSLDD	2.86
FTTEGIQLAKELGATYLELHSLDD	2.39
DTTEGIQLAKELGATYLELHSLDD	4.37
WTTEGIQLAKELGATYLELHSLDD	2.74
RTTEGIQLAKELGATYLELHSLDD	3.64
LTTEGIQLAKELGATYLELHSLDD	2.26
NTTEGIQLAKELGATYLELHSLDD	3.19
HTTEGIQLAKELGATYLELHSLDD	2.81
PTTEGIQLAKELGATYLELHSLDD	3.63
ITTEGIQLAKELGATYLELHSLDD	2.44
VTTEGIQLAKELGATYLELHSLDD	3.06
TTTEGIQLAKELGATYLELHSLDD	3.56
MTTEGIQLAKELGATYLELHSLDD	3.49
GTTEGIQLAKELGATYLELHSLDD	3.69
ETTEGIQLAKELGATYLELHSLDD	4.26
